Results published in PMC10397247.
Where two headings read alike, the source gives them in different places. Each block holds one binder with its values, some of them ahead of it.

How the values were obtained:
4H3921-AA = target: T1, 4H3921-AA; test: two-hybrid library CCmax;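 further: natural log of median RNA to DNA barcode read ratio; higher means stronger binding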
T1 chain: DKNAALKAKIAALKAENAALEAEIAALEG

4H429-AA = target: T2, 4H429-AA; test: two-hybrid library CCmax; details: mean of both orientations;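 further: natural log of median RNA to DNA barcode read ratio; higher means stronger binding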
T2 chain: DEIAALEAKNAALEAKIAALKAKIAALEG

4H454-AA = target: T3, 4H454-AA; test: two-hybrid library CCmax; details: mean of both orientations;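 further: natural log of median RNA to DNA barcode read ratio; higher means stronger binding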
T3 chain: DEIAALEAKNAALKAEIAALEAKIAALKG

4H566-AA = target: T4, 4H566-AA; test: two-hybrid library CCmax; details: mean of both orientations;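 further: natural log of median RNA to DNA barcode read ratio; higher means stronger binding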
T4 chain: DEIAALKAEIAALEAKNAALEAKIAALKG

4H605-AA = target: T5, 4H605-AA; test: two-hybrid library CCmax; details: mean of both orientations
T5 chain: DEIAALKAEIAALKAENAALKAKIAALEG

4H678-AA = target: T6, 4H678-AA; test: two-hybrid library CCmax; details: mean of both orientations
T6 chain: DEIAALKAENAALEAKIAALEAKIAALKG

4H717-AA = target: T7, 4H717-AA; test: two-hybrid library CCmax; details: mean of both orientations
T7 chain: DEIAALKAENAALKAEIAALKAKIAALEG

4H780-AA = target: T8, 4H780-AA; test: two-hybrid library CCmax; details: mean of both orientations
T8 chain: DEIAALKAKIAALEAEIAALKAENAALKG

4H794-AA = target: T9, 4H794-AA; test: two-hybrid library CCmax; details: mean of both orientations
T9 chain: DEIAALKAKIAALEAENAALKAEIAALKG

4H881-AA = target: T10, 4H881-AA; test: two-hybrid library CCmax; details: mean of both orientations
T10 chain: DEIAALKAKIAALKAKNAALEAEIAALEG

4H906-AA = target: T11, 4H906-AA; test: two-hybrid library CCmax; details: mean of both orientations
T11 chain: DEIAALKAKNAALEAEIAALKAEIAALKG

4H993-AA = target: T12, 4H993-AA; test: two-hybrid library CCmax; details: mean of both orientations
T12 chain: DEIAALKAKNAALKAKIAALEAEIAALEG

4H697-AA = target: T13, 4H697-AA; test: two-hybrid library CCmax
T13 chain: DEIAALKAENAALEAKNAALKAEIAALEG

4H982-AA = target: T14, 4H982-AA; test: two-hybrid library CCmax
T14 chain: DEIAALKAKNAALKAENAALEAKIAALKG

4H3655-AA = target: T15, 4H3655-AA; test: two-hybrid library CCmax
T15 chain: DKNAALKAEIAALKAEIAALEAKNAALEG

4H3844-AA = target: T16, 4H3844-AA; test: two-hybrid library CCmax; details: mean of both orientations
T16 chain: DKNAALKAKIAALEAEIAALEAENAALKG

4H48-AA = target: T17, 4H48-AA; test: two-hybrid library CCmax; details: mean of both orientations
T17 chain: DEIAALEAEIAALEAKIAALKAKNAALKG

4H3697-AA = target: T18, 4H3697-AA; test: two-hybrid library CCmax
T18 chain: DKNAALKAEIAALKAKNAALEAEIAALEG

4H3718-AA = target: T19, 4H3718-AA; test: two-hybrid library CCmax; details: mean of both orientations
T19 chain: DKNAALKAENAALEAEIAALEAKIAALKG

4H3753-AA = target: T20, 4H3753-AA; test: two-hybrid library CCmax; details: mean of both orientations
T20 chain: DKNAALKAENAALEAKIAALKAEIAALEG

4H384-AA = target: T21, 4H384-AA; test: two-hybrid library CCmax; details: mean of both orientations
T21 chain: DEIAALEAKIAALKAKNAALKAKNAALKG

4H3865-AA = target: T22, 4H3865-AA; test: two-hybrid library CCmax; details: mean of both orientations
T22 chain: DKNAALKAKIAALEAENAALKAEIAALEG

4H458-AA = target: T23, 4H458-AA; test: two-hybrid library CCmax; details: mean of both orientations
T23 chain: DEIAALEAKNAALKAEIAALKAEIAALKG

4H485-AA = target: T24, 4H485-AA; test: two-hybrid library CCmax; details: mean of both orientations
T24 chain: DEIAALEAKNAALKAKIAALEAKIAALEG

4H536-AA = target: T25, 4H536-AA; test: two-hybrid library CCmax; details: mean of both orientations
T25 chain: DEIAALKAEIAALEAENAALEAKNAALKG

4H570-AA = target: T26, 4H570-AA; test: two-hybrid library CCmax; details: mean of both orientations
T26 chain: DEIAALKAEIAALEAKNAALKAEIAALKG

4H629-AA = target: T27, 4H629-AA; test: two-hybrid library CCmax; details: mean of both orientations
T27 chain: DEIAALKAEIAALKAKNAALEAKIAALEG

4H710-AA = target: T28, 4H710-AA; test: two-hybrid library CCmax; details: mean of both orientations
T28 chain: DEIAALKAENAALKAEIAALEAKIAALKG

4H745-AA = target: T29, 4H745-AA; test: two-hybrid library CCmax; details: mean of both orientations
T29 chain: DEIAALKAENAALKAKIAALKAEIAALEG

4H797-AA = target: T30, 4H797-AA; test: two-hybrid library CCmax; details: mean of both orientations
T30 chain: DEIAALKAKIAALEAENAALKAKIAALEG

4H850-AA = target: T31, 4H850-AA; test: two-hybrid library CCmax; details: mean of both orientations
T31 chain: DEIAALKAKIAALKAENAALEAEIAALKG

4H891-AA = target: T32, 4H891-AA; test: two-hybrid library CCmax; details: mean of both orientations
T32 chain: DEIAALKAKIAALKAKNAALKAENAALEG

4H909-AA = target: T33, 4H909-AA; test: two-hybrid library CCmax; details: mean of both orientations
T33 chain: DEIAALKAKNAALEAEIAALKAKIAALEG

4H930-AA = target: T34, 4H930-AA; test: two-hybrid library CCmax; details: mean of both orientations
T34 chain: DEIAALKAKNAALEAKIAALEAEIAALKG

4H94-AA = target: T35, 4H94-AA; test: two-hybrid library CCmax; details: mean of both orientations
T35 chain: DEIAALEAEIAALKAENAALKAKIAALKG

4H478-AA = target: T36, 4H478-AA; test: two-hybrid library CCmax
T36 chain: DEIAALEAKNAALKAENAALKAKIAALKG

4H497-AA = target: T37, 4H497-AA; test: two-hybrid library CCmax; details: mean of both orientations
T37 chain: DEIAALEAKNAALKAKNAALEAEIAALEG

4H656-AA = target: T38, 4H656-AA; test: two-hybrid library CCmax; details: mean of both orientations
T38 chain: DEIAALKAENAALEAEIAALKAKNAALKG

4H675-AA = target: T39, 4H675-AA; test: two-hybrid library CCmax
T39 chain: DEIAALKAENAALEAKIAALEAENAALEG

4H971-AA = target: T40, 4H971-AA; test: two-hybrid library CCmax; details: mean of both orientations
T40 chain: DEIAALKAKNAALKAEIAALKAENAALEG

4H906-bH = target: T41, 4H906-bH; test: two-hybrid library CCNG1
T41 chain: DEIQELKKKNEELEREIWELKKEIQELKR

interaction score (4H3921-AA): -1.67
interaction score (4H429-AA): -0.196
interaction score (4H454-AA): 0.521
interaction score (4H566-AA): 0.811
interaction score (4H605-AA): -0.532
interaction score (4H678-AA): -1.4
interaction score (4H717-AA): -1.37
interaction score (4H780-AA): -1.71
interaction score (4H794-AA): -0.924
interaction score (4H881-AA): -0.834
interaction score (4H906-AA): -1.62
interaction score (4H993-AA): 0.874
Binder: DKNAALKAKIAALKAENAALEAEIAALEG [4H3921-AA]

interaction score (4H3697-AA): -0.761
interaction score (4H3718-AA): -0.817
interaction score (4H3753-AA): -1.79
interaction score (4H384-AA): -0.953
interaction score (4H3865-AA): -1.52
interaction score (4H458-AA): -1.36
interaction score (4H485-AA): -0.973
interaction score (4H536-AA): 0.0406
interaction score (4H570-AA): 0.23
interaction score (4H629-AA): -0.654
interaction score (4H697-AA; mean of both orientations): -1.53
interaction score (4H710-AA): -1.75
interaction score (4H745-AA): -1.64
interaction score (4H797-AA): -1.44
interaction score (4H850-AA): -0.0774
interaction score (4H891-AA): -1.55
interaction score (4H909-AA): -1.21
interaction score (4H930-AA): -1.4
interaction score (4H94-AA): 1.01
interaction score (4H982-AA; mean of both orientations): -1.01
Binder: DKNAALKAEIAALKAKNAALEAEIAALEG [4H3697-AA]

The next lines start with the binder.

Binder: DEIAALKAENAALEAKNAALKAEIAALEG [4H697-AA]
interaction score (4H697-AA): -1.15
interaction score (4H982-AA): 2.27

Binder: DKNAALKAEIAALKAEIAALEAKNAALEG [4H3655-AA]
interaction score (4H3655-AA): 0.24
interaction score (4H3844-AA): -1.26
interaction score (4H3921-AA; mean of both orientations): -1.55
interaction score (4H429-AA): -1.13
interaction score (4H454-AA): -0.827
interaction score (4H48-AA): 0.736
interaction score (4H566-AA): -1.03
interaction score (4H605-AA): -1.25
interaction score (4H678-AA): -0.956
interaction score (4H717-AA): -1.27
interaction score (4H780-AA): -1.83
interaction score (4H794-AA): -1.61
interaction score (4H881-AA): -0.202
interaction score (4H906-AA): -1.03
interaction score (4H993-AA): -1.32

Binder: DEIAALKAKNAALKAENAALEAKIAALKG [4H982-AA]
interaction score (4H982-AA): 0.123

Binder: DEIAALEAKNAALKAENAALKAKIAALKG [4H478-AA]
interaction score (4H478-AA): 0.99
interaction score (4H497-AA): -0.909
interaction score (4H656-AA): -0.144
interaction score (4H675-AA): -1.76
interaction score (4H971-AA): -1.54

Binder: DEIQELKKKNEELEREIWELKKEIQELKR [4H906-bH]
interaction score (4H906-bH): 0.905
